Among the data in article PMC12631696, “Trp101-Mediated Cold Adaptation in Sphingomonas sp. Thioredoxin: Increased α4-Helix Rigidity with Preserved Overall Flexibility” (ACS Omega, 2025) are Km and kcat values, retold here.

In one data set the test system is O=C(O)c1cc(SSc2ccc([N+](=O)[O-])c(C(=O)O)c2)ccc1[N+](=O)[O-]. Put plainly: purified protein. To be noted: Trx pre-reduced with 5 mM DTT, 0.4 μM, 50 mM MOPS pH 7.0, 1 mM EDTA, DTNB 10–150 μM, apparent optimal temperature (40 °C).
Usually Km stands for the substrate concentration at which the rate is half of its maximum. For orientation: kcat means the number of substrate molecules converted per active site and unit of time at saturation. Turning to “SpTrx (Sphingomonas sp. PAMC 26621; E43A/E47A)”, the Km is 44.0 ± 0.1 µM and the kcat was determined as 13.1 ± 0.2 s⁻¹.
The corresponding values for “SpTrx (Sphingomonas sp. PAMC 26621; E47A)” are 39.0 ± 0.1 µM and 23 ± 0.1 s⁻¹.
As for “SpTrx (Sphingomonas sp. PAMC 26621; W101A)”, the Km turned out to be 59.9 ± 0.2 µM and the kcat stood at 0.6 ± 0.1 s⁻¹.
As for “SpTrx (Sphingomonas sp. PAMC 26621; W101F)”, the Km came to 50.7 ± 0.6 µM and the kcat came out at 14.6 ± 0.1 s⁻¹.

Staying with this data set, now noted: Trx pre-reduced with 5 mM DTT, 0.4 μM, 50 mM MOPS pH 7.0, 1 mM EDTA, DTNB 10–150 μM, apparent optimal temperature (60 °C).
On to SpTrx (Sphingomonas sp. PAMC 26621), for which the Km stood at 33.0 ± 0.1 µM and the kcat was found to be 26.1 ± 0.1 s⁻¹.
The corresponding values for “SpTrx (Sphingomonas sp. PAMC 26621; E43A)” are 38.3 ± 0.1 µM and 23.4 ± 0.1 s⁻¹.
